We go through 9 molecules from patent US20240400677A1 (ELECTRA THERAPEUTICS, published 2024).

Numbering of substitutions follows the chain as printed.

The chains are these.
T1: Cynomolgus Monkey SIRPγ (plate-coated extracellular domain)
T1 construct: also called Cyno SIRPγ
T1 extracellular domain: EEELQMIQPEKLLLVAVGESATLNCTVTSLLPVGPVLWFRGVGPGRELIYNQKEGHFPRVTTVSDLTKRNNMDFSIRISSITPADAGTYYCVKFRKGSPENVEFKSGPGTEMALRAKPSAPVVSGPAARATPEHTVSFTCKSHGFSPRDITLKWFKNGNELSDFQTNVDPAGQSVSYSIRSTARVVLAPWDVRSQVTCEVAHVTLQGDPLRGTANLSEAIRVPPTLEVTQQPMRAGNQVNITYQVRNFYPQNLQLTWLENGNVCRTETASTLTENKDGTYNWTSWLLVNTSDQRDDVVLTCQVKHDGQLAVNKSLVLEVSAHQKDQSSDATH

T2: cynomolgus monkey SIRPγ on CHO cells (cynomolgus monkey, UniProt Q9P1W8 29-386 (human entry))
T2 construct: also called Cyno SIRPγ CHO
T2 chain: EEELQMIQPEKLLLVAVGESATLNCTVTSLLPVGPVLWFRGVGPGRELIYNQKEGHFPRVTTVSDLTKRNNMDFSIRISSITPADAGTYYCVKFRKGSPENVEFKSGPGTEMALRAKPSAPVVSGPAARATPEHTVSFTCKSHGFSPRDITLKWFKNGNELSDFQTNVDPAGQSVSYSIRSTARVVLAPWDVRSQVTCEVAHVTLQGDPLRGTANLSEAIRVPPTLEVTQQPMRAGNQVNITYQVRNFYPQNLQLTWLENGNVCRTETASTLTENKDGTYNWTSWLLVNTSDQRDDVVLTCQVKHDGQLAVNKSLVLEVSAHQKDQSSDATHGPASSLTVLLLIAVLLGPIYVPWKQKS

T3: cynomolgus monkey SIRPα on CHO cells (cynomolgus monkey, UniProt A0A2K5VYQ9 31-507)
T3 construct: whole, on cells; also called Cyno SIRPα CHO
T3 sequence: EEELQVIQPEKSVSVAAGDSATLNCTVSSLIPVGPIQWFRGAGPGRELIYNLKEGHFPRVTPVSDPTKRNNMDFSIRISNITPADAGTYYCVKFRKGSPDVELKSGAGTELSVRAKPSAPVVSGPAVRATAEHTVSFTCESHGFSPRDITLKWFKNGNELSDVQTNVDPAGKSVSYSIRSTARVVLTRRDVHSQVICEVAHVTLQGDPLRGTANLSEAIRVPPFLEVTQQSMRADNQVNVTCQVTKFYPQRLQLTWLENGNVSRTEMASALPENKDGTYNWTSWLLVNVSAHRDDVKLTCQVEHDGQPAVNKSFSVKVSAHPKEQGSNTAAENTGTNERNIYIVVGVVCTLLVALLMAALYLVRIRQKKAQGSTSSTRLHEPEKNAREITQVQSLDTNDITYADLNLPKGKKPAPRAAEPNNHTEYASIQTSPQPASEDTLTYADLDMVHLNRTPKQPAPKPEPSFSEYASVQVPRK

B1: Antibody 55 (antibody, V domains shown)
VH: EVQLLESGGGLVQPGGSLRLSCAASGFTFSNSDMNWVRQAPGKGLEWVSYISSSGNTIYYADSVKGRFTISRDNSKNTLYLQMNSLRAEDTAVYYCARSNWNYPLDYYYMDVWGKGTTVTVSS
VL: DIVMTQSPLSLPVTPGEPASISCRSSQSLLHSNGYNYLDWYLQKPGQSPQLLIYAASSLQSGVPDRFSGSGSGTDFTLKISRVEAEDVGVYYCMQGTHWPPTFGQGTKVEIK
B2: Antibody 61 (antibody, V domains shown)
VH: QVQLVQSGAEVKKPGASVKVSCKASGYTFTSHDINWVRQAPGQGLEWMGISNPSGGSTYYAQKFQGRVTMTRDTSTSTVYMELSSLRSEDTAVYYCASSRRYWNGAFDYWGQGTLVTVSS
VL: not shown
B3: Antibody 62 (antibody, V domains shown)
VH: QVQLVQSGAEVKKPGASVKVSCKASGGTFSNYDINWVRQAPGQGLEWMGWISAYNGNTNYAQKLQGRVTMTRDTSTSTVYMELSSLRSEDTAVYYCAAEAYGDYSLDPWGQGTLVTVSS
VL: DIQMTQSPSSLSASVGDRVTITCQASQGISSYLNWYQQKPGKAPKLLIYAASSLQNGVPSRFSGSGSGTDFTLTISSLQPEDFATYYCQQSYSTPITFGQGTRLEIK
B4: Antibody 78 (antibody, V domains shown)
VH: QVQLVQSGAEVKKPGASVKVSCKASGYTFTTYGISWVRQAPGQGLEWMGWMDPNSGSTGYAQKFQGRVTMTRDTSTSTVYMELSSLRSEDTAVYYCARGRGNSYYYYYMDVWGKGTTVTVSS
VL: DIQMTQSPSSLSASVGDRVTITCRASQRIGSYLNWYQQKPGKAPKLLIYGASNLQSGVPSRFSGSGSGTDFTLTISSLQPEDFATYYCQQANSFPFTFGPGTKVDIK
B5: Antibody 48 (scFv, V domains shown)
VH: QVQLVQSGAEVKKPGASVKVSCKASGYTFTSYYMHWVRQAPGQGLEWMGWMNPNSGNTGYAQKFQGRVTMTRDTSTSTVYMELSSLRSEDTAVYYCARDQMYSSYGMDVWGQGTTVTVSS
VL: DIQMTQSPSSLSASVGDRVTITCRASESITNWLAWYQQKPGKAPKLLIYKASSLESGVPSRFSGSGSGTDFTLTISSLQPEDFATYYCQQSYGTPYTFGQGTKVEIK
notes: scFv in crude PPE, V5/myc-tagged
B6: Antibody 52 (scFv, V domains shown)
VH: QVQLVQSGAEVKKPGASVKVSCKASGYTFTSYDINWVRQAPGQGLEWMGWISGYNGNTNYAQKFQGRVTMTRDTSTSTVYMELSSLRSEDTAVYYCARSFDWLLLLDYWGQGTLVTVSS
VL: DIQMTQSPSSLSASVGDRVTITCRASQSISSWLAWYQQKPGKAPKLLIYDATTLESGVPSRFSGSGSGTDFTLTISSLQPEDFATYYCQQYDSYPWTFGQGTKLEIK
notes: as for B5
B7: Antibody 53 (scFv, V domains shown)
VH: QVQLVQSGAEVKKPGASVKVSCKASGHTFNNNYIHWVRQAPGQGLEWMGIINPSGGSTSYAQKFQGRVTMTRDTSTSTVYMELSSLRSEDTAVYYCARQIQDYGYYYYGMDVWGQGTTVTVSS
VL: EIVMTQSPATLSVSPGERATLSCRASQSVSKYLAWYQQKPGQAPRLLIYAISARAAGIPARFSGSGSGTEFTLTISSLQSEDFAVYYCQQYYSSPPTFGQGTKVEIK
notes: as for B5
B8: Antibody 51 (scFv, V domains shown)
VH: QVQLVQSGAEVKKPGASVKVSCKASGYTFTRYDINWVRQAPGQGLEWMGWMNPNSGNTGYAQKLQGRVTMTRDTSTSTVYMELSSLRSEDTAVYYCARERVGYCSSTSCLHPLDYWGQGTLVTVSS
VL: DIQMTQSPSSLSASVGDRVTITCRASQGIRNDLGWYQQKPGKAPKLLIYSASNLQSGVPSRFSGSGSGTDFTLTISSLQPEDFATYYCQQSYDVPLTFGGGTKVEIK
notes: as for B5
B9: Antibody 75 (antibody, V domains shown)
VH: QVQLVQSGAEVKKPGSSVKVSCKASGGTFSNYAISWVRQAPGQGLEWMGGIIPIFGSTASYAQKFQGRVTITADESTSTAYMELSSLRSEDTAVYYCARGVGDDTLTDWGQGTLVTVSS
VL: B1 VL with G96A, T97L, H98Q, W99T, P101L, Q105G

T7 sequence (Q9P1W8 29-360 limits assumed): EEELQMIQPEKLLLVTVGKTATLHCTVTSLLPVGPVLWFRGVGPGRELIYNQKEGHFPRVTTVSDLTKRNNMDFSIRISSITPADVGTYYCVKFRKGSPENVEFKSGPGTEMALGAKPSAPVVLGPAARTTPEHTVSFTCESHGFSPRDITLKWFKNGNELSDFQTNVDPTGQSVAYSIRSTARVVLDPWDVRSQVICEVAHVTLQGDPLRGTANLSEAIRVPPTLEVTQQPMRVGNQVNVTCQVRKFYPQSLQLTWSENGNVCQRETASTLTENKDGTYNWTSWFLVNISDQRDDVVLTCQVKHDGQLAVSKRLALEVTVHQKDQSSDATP
T4 sequence (Q9P1W8 29-360 limits assumed): as above

The first test addresses T4, extracellular binding domain of human SIRPγ (plate-coated) (human, UniProt Q9P1W8 29-360).
T4 construct: also called hSIRPγ
The test can be described thus: ELISA, coated SIRP ECD (2 µg/mL), anti-human IgG, luminescence. The method, then: (§1) Selected hybridoma supernatants of Example 1 were tested for binding to human SIRPγ, cynomolgus monkey SIRPγ, human SIRPα V1, cynomolgus monkey SIRPα, human SIRPβ1, and cynomolgus monkey SIRPβ1 by enzyme-linked immunosorbent assay (ELISA). Briefly, 2 μg/mL of the extracellular domain of SIRP protein was coated onto high protein-binding plates and blocked. Undiluted supernatants were added to coated plates. The antibodies were detected by an anti-rat antibody and a chemiluminescent substrate. […] The data depict the relative luminescence units read by a plate-reader capable of detecting chemiluminescence.
(§2) FIGS. 2A-2G show binding curves of SIRPγ antibodies and human Fc isotype controls to human SIRPγ, cynomolgus monkey SIRPγ, human SIRPα V1, human SIRPα V2, and human SIRPβ1 by ELISA. […] Isotype control 2 was an unrelated human IgG1 antibody with irrelevant CDRs with no modifications in the Fc region. DNA was transiently transfected into Expi293F cells for 5 days. Antibodies were purified by Protein A from cell supernatants and analyzed in a titration via ELISA as previously described in FIG. 1 using an anti-human IgG antibody as the detection antibody.
Background: In an ELISA, binding on a coated surface is turned into a signal by an enzyme label.
As to B1, the EC50 (read off the curve) (commonly the concentration giving half of the maximal effect) is ~0.7 µg/mL.

In the next test the target is T1, Cynomolgus Monkey SIRPγ (plate-coated …). The description is as above. As to the method:
as §1, §2
With B2, the binding result is “binds”.

In the case of B3, the binding result is listed as “binds”.

Consider B4, for which the binding result is listed as “binds”.

For the next test, the target named is T2, cynomolgus monkey SIRPγ on CHO cells. Briefly: flow cytometry, myc-scFv PPE. The method, then:
(§3) Selected antibodies were tested for binding to stably transfected human SIRPγ, SIRPαV1, or SIRPβ1 (co-transfected with DAP12) Chinese hamster ovary (CHO) cells via flow cytometry. A titration of select antibodies was added to the cells and detected using a fluorescently labelled secondary anti-rat IgG antibody or anti-human IgG antibody. Graphs depict the median fluorescence intensity (MFI) at each concentration. FIGS. 5A and 5G show the binding curves of select antibodies to human SIRPγ, cynomolgus monkey SIRPγ, human SIRPα, cynomolgus monkey SIRPα, human SIRPβ1, or cynomolgus monkey SIRPβl-expressing CHO cells detected using an anti-rat IgG antibody. FIGS. 5B-5F and 5H-5L show the binding curves of select antibodies to human SIRPγ, cynomolgus monkey SIRPγ, human SIRPα, cynomolgus monkey SIRPα, human SIRPβ1, or cynomolgus monkey SIRPβ1-expressing CHO cells detected using an anti-human IgG antibody. […] For select antibodies, each myc-tagged SIRPγ scFv antibody as crude PPE was incubated with each of the SIRP-expressing cell lines stated above along with the parental CHO-K1 cell line. […] Fold change value <2.0 is considered a non-binder.
On to B5, for which the “MFI fold change over parental CHO” value turned out to be 9.25 fold.

Consider B6, for which the “MFI fold change over parental CHO” value was 16.3 fold.

B7: the “MFI fold change over parental CHO” value was 6.94 fold.

For the molecule B8, the “MFI fold change over parental CHO” value turned out to be 18.8 fold.

The target in another test is T5, human SIRPγ on stably transfected CHO cells (human, UniProt Q9P1W8 29-387).
T5 construct: also called Human SIRPγ CHO
T5 sequence (Q9P1W8 29-387 limits assumed): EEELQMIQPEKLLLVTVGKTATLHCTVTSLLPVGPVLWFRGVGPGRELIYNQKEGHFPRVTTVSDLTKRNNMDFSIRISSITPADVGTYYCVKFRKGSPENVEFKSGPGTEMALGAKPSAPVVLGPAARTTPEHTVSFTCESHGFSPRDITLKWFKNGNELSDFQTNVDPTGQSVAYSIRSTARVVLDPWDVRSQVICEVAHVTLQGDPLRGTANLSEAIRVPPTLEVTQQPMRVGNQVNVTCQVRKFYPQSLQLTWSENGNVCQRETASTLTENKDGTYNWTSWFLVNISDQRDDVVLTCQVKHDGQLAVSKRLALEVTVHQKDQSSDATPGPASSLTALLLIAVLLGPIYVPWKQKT
Briefly: flow cytometry, myc-scFv PPE. The method, then:
as §3
A general note: A flow cytometer gives signals particle by particle.
Consider B5, for which the “MFI fold change over parental CHO” value stood at 12.1 fold.

Turning to B6, the “MFI fold change over parental CHO” value amounted to 14.7 fold.

Regarding B7, the “MFI fold change over parental CHO” value came out at 5.97 fold.

Take B8: the “MFI fold change over parental CHO” value was 20 fold.

For a further test, the target named is T6, human SIRPβ1 on CHO cells (co-transfected with DAP12) (human, UniProt O00241 30-398).
T6 construct: whole, on cells; co-transfected with DAP12; also called Human SIRPβ1 CHO
T6 sequence (O00241 30-398): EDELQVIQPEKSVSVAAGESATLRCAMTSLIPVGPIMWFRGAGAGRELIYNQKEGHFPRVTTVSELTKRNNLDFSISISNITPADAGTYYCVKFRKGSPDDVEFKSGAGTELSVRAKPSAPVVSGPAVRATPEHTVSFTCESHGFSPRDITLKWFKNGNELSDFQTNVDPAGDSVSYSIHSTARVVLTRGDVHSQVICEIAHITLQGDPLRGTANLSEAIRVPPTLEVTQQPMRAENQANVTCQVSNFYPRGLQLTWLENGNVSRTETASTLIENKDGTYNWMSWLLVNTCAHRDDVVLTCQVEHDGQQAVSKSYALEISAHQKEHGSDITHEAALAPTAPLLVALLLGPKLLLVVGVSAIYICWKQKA
Briefly: flow cytometry, CHO transfectants, anti-human IgG. As to the method: as §3
For B3, the binding result is on record as “no binding (tested: about 20 µg/mL)”.

With B4, the binding result is listed as “no binding (tested: about 20 µg/mL)”.

In the case of B1, the binding result was “no binding (tested: about 20 µg/mL)”.

B9: the binding result is recorded as “no binding (tested: about 20 µg/mL)”.

The next test addresses T3, cynomolgus monkey SIRPα on CHO cells. The test can be described thus: flow cytometry, CHO transfectants, anti-human IgG. As to the method: as §3
As to B3, the binding result is “no binding (tested: about 20 µg/mL)”.

In the case of B4, the binding result is “no binding (tested: about 20 µg/mL)”.

Take B1: the binding result is on record as “no binding (tested: about 20 µg/mL)”.

As to B9, the binding result is recorded as “no binding (tested: about 20 µg/mL)”.

The next test concerns the target T7, human SIRPγ-His monomer protein (human, UniProt Q9P1W8 29-360).
T7 construct: also called hSIRPγ
Briefly: BLI Octet, V5-scFv PPE captured, SIRP-His 500 nM. For orientation: BLI is a label-free optical method that tracks binding on a fibre tip over time.
In turn, B5 displayed a kdis of 0.001 to 0.01 s⁻¹.

In the case of B6, the kdis was > 0.01 s⁻¹.

For B7, the kdis was > 0.01 s⁻¹.

For the molecule B8, the kdis fell in the range of 0.001 to 0.01 s⁻¹.

The next test has as its target T6, human SIRPβ1 on CHO cells …. Briefly: flow cytometry.
Turning to B5, the binding result is reported as “no binding (tested: fold change <2.0)”.

With B6, the binding result was “no binding (tested: fold change <2.0)”.

With B7, the binding result was “no binding (tested: fold change <2.0)”.

With B8, the binding result is “no binding (tested: fold change <2.0)”.

In the next test the target is T3, cynomolgus monkey SIRPα on CHO cells. Briefly: flow cytometry.
For B5, the binding result was “no binding (tested: fold change <2.0)”.

With B6, the binding result is given as “no binding (tested: fold change <2.0)”.

Turning to B7, the binding result is listed as “no binding (tested: fold change <2.0)”.

As to B8, the binding result is listed as “no binding (tested: fold change <2.0)”.
